From article PMC9098846, “Molecular insights into biogenesis of glycosylphosphatidylinositol anchor proteins” (Nature Communications, 2022)

T1: GPAA1, subunit of the human GPI transamidase (GPI-T) (human, UniProt O43292-1 2-621)
T1 construct: GPAA1, human, Genbank ID NP_003792.1; The 2×Flag tag follows the TGP tag; also called Gaa1p (yeast name); source: Expi293 cells co-transfected with five plasmids carrying all subunits; purified as the GPI-T complex (Strep-Tactin, Ni-NTA, gel filtration) in digitonin
T1 sequence: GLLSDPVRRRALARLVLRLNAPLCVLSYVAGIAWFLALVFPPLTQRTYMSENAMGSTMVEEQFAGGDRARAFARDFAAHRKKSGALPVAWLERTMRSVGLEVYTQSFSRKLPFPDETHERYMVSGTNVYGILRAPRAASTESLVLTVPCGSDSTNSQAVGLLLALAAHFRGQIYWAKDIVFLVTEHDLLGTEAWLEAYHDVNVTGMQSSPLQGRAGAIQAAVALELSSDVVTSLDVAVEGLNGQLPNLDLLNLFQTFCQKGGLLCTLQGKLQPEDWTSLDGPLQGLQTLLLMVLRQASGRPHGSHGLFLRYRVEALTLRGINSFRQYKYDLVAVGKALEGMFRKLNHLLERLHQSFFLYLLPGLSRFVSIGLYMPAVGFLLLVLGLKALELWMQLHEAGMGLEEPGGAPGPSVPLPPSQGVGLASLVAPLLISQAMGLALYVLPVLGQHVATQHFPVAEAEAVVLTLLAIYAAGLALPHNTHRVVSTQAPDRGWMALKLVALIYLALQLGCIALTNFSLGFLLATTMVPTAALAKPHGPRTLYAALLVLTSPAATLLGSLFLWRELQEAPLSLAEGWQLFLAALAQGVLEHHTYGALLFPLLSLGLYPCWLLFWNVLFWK

B1: PIGU, subunit of the human GPI transamidase (GPI-T) (natural protein)
chain: AAPLVLVLVVAVTVRAALFRSSLAEFISERVEVVSPLSSWKRVVEGLSLLDLGVSPYSGAVFHETPLIIYLFHFLIDYAELVFMITDALTAIALYFAIQDFNKVVFKKQKLLLELDQYAPDVAELIRTPMEMRYIPLKVALFYLLNPYTILSCVAKSTCAINNTLIAFFILTTIKGSAFLSAIFLALATYQSLYPLTLFVPGLLYLLQRQYIPVKMKSKAFWIFSWEYAMMYVGSLVVIICLSFFLLSSWDFIPAVYGFILSVPDLTPNIGLFWYFFAEMFEHFSLFFVCVFQINVFFYTIPLAIKLKEHPIFFMFIQIAVIAIFKSYPTVGDVALYMAFFPVWNHLYRFLRNIFVLTCIIIVCSLLFPVLWHLWIYAGSANSNFFYAITLTFNVGQILLISDYFYAFLRREYYLTHGLYLTAKDGTEAMLVLK
notes: PIGU, human, Genbank ID NP_536724.1; gene assembled from overlapping oligonucleotides; also called Gab1p (yeast name); source: Expi293 cells co-transfected with five plasmids carrying all subunits; purified as the GPI-T complex (Strep-Tactin, Ni-NTA, gel filtration) in digitonin; not shown: Strep, C-terminal, kept
B2: PIGS, subunit of the human GPI transamidase (GPI-T) (natural protein)
chain: AAAGAAATHLEVARGKRAALFFAAVAIVLGLPLWWKTTETYRASLPYSQISGLNALQLRLMVPVTVVFTRESVPLDDQEKLPFTVVHEREIPLKYKMKIKCRFQKAYRRALDHEEEALSSGSVQEAEAMLDEPQEQAEGSLTVYVISEHSSLLPQDMMSYIGPKRTAVVRGIMHREAFNIIGRRIVQVAQAMSLTEDVLAAALADHLPEDKWSAEKRRPLKSSLGYEITFSLLNPDPKSHDVYWDIEGAVRRYVQPFLNALGAAGNFSVDSQILYYAMLGVNPRFDSASSSYYLDMHSLPHVINPVESRLGSSAASLYPVLNFLLYVPELAHSPLYIQDKDGAPVATNAFHSPRWGGIMVYNVDSKTYNASVLPVRVEVDMVRVMEVFLAQLRLLFGIAQPQLPPKCLLSGPTSEGLMTWELDRLLWARSVENLATATTTLTSLAQLLGKISNIVIKDDVASEVYKAVAAVQKSAEELASGHLASAFVASQEAVTSSELAFFDPSLLHLLYFPDDQKFAIYIPLFLPMAVPILLSLVKIFLETRKSWRKPEKTD
notes: PIGS, human, Genbank ID NP_149975.1; The Myc tag follows the TGP tag; also called Gpi17p (yeast name); source: Expi293 cells co-transfected with five plasmids carrying all subunits; purified as the GPI-T complex (Strep-Tactin, Ni-NTA, gel filtration) in digitonin
B3: PIGT, subunit of the human GPI transamidase (GPI-T) (natural protein)
chain: LAEPPRDSLREELVITPLPSGDVAATFQFRTRWDSELQREGVSHYRLFPKALGQLISKYSLRELHLSFTQGFWRTRYWGPPFLQAPSGAELWVWFQDTVTDVDKSWKELSNVLSGIFCASLNFIDSTNTVTPTASFKPLGLANDTDHYFLRYAVLPREVVCTENLTPWKKLLPCSSKAGLSVLLKADRLFHTSYHSQAVHIRPVCRNARCTSISWELRQTLSVVFDAFITGQGKKDWSLFRMFSRTLTEPCPLASESRVYVDITTYNQDNETLEVHPPPTTTYQDVILGTRKTYAIYDLLDTAMINNSRNLNIQLKWKRPPENEAPPVPFLHAQRYVSGYGLQKGELSTLLYNTHPYRAFPVLLLDTVPWYLRLYVHTLTITSKGKENKPSYIHYQPAQDRLQPHLLEMLIQLPANSVTKVSIQFERALLKWTEYTPDPNHGFYVSPSVLSALVPSMVAAKPVDWEESPLFNSLFPVSDGSNYFVRLYTEPLLVNLPTPDFSMPYNVICLTCTVVAVCYGSFYNLLTRTFHIEEPRTGGLAKRLANLIRRARGVPPL
modifications: disulfide bond from C182 to PIGK C92
notes: PIGT, human, Genbank ID NP_057021.2; also called Gpi16p (yeast name); source: Expi293 cells co-transfected with five plasmids carrying all subunits; purified as the GPI-T complex (Strep-Tactin, Ni-NTA, gel filtration) in digitonin; not shown: 9×His, C-terminal, kept

Columns and labels:
Assay in all cases: cryo-EM structure; single-particle cryo-EM of the purified GPI-T complex in 0.1% digitonin, 150 mM NaCl, 20 mM Tris HCl pH 8.0; 2.53 Å; five subunits with 1:1 stoichiometry
Settings in all cases: both partners purified
[1] = molecular target: T1, GPAA1, subunit of the human GPI …
[2] = molecular target: B2
[3] = molecular target: B3
[4] = molecular target: B1

Binder | binding result [1] | binding result [2] | binding result [3] | binding result [4]
B1 | binds | binds | binds | –
B2 | – | – | binds | –
PIGK, subunit of the human GPI transamidase (GPI-T) (enzyme, disulfide bond from C92 to PIGT C182, PIGK, human, Genbank ID NP_005473.1; The HA tag follows the TGP tag; also called Gpi8p (yeast name); source: Expi293 cells co-transfected with five plasmids carrying all subunits; purified as the GPI-T complex (Strep-Tactin, Ni-NTA, gel filtration) in digitonin) SHIEDQAEQFFRSGHTNNWAVLVCTSRFWFNYRHVANTLSVYRSVKRLGIPDSHIVLMLADDMACNPRNPKPATVFSHKNMELNVYGDDVEVDYRSYEVTVENFLRVLTGRIPPSTPRSKRLLSDDRSNILIYMTGHGGNGFLKFQDSEEITNIELADAFEQMWQKRRYNELLFIIDTCQGASMYERFYSPNIMALASSQVGEDSLSHQPDPAIGVHLMDRYTFYVLEFLEEINPASQTNMNDLFQVCPKSLCVSTPGHRTDLFQRDPKNVLITDFFGSVRKVEITTETIKLQQDSEIMESSYKEDQMDEKLMEPLKYAEQLPVAQIIHQKPKLKDWHPPGGFILGLWALIIMVFFKTYGIKHMKFIF | – | binds | binds | binds
B3 | binds | – | – | –
